# Assay results reported in a protein production outcome set (Wang et al. 2014).
# Test: label from the status in PepcDB records
# 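Also: failed if final PepcDB status was selected cloned or expressed and not failed if soluble or beyond.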
row,Sequence,protein production
1,MEQRRVTDFFARRRPGPPRIAPPKLACRTPSPARPALRAPASATSGSRKRARPPAAPGRDQARPPARRRLRLSVDEVSSPSTPEAPDIPACPSPGQKIKKSTPAAGQPPHLTSAQDQDTISELASCLQRARELGARVRALKASAQDAGESCTPEAEGRPEEPCGEKAPAYQRFHALAQPGLPGLVLPYKYQVLAEMFRSMDTIVGMLHNRSETPTFAKVQRGVQDMMRRRFEERNVGQIKTVYPASYRFRQERSVPTFKDGTRRSDYQLTIEPLLEQEADGAAPQLTASRLLQRRQIFSQKLVEHVKEHHKAFLASLSPAMVVPEDQLTRWHPRFNVDEVPDIEPAALPQPPATEKLTTAQEVLARARNLISPRMEKALSQLALRSAAPSSPGSPRPALPATPPATPPAASPSALKGVSQDLLERIRAKEAQKQLAQMTRCPEQEQRLQRLERLPELARVLRSVFVSERKPALSMEVACARMVGSCCTIMSPGEMEKHLLLLSELLPDWLSLHRIRTDTYVKLDKAADLAHITARLAHQTRAEEGL,failed
2,MEQSLGSKQNLGSKQNQITKPHKLVLDNRKRTNLTGIEDVVEFDTTQIVLESSMGMLVIKGADLKITRLSIEKGEADIDGSVNSVIYSQIKNYGEKGKSVLKRMFS,failed
3,MEQTDITSLIPIAITLIISLTTRNVVVGLFAGVLSGVAMLNGLFTTLGPFETFGVMVKSYISPQLTDSYNAGVIVLLVFIGGFVALMEKSGGGLAFAEKVTLWVKSKFQAQTSAWLGGIIIFFSDLGTPLIVGPVFRPLFDKLKISRQKLAFIIDSTSSPVAILIPFIGWGVYIMGLIQKEFTALNVTDITDWDAFLGAIPYQFYAILAIAIVPLVALKKLDFGPMAKAEAIASKGELHASSDISKEIFTHKNAKASFVWAPLLVMGAVLVFMLAPLGFPFEKVSGSVFRSALSTAYFFAAFTLIILMAMNKVRSLSDGISVYMKGMGNMMQVAIILILAWTLSSVGKELGAAAYIAEQAQNGFPYWLVPAVSFLLAAIISFATGSSWGTFAIMMHLVIPTAITIDAPMFVCIGAVLSGGLFGDHCSPISETTILSSTGAGCDQFEHFKTQLPYALLNGGIALVSFLIAGIFDNPLIFILALIAQVTLVVTLAKLTPENMFNKSKLVAGNQLG,failed
4,MERHQHLLSEYQQILTLSEQMLVLATEGNWDALVDLEMTYLKAVESTANITISSCSSLMLQDLLREKLRAILDNEIEIKRLLQLRLDRLSDLVGQSTKQQAVNNTYGQFPDHALL,not failed
5,MERISLSFVGDVMLAGSATDTLQRYGYSYPFSATAAELRRSDLVVGNLEAPLTDGGREFRAKRFRFKASPVAAAALKRAGFSVMTLANNHMMDFGADGLSDTIHHLNRNGIAFAGAGPSIADARREASVTVRGQTVAFLAYSLTQPIEFFATEGRPGTAPGYAGHYLADIRRVRSSADHVVVSFHWGQERAALPSPYQIETAHRAIDAGADIVIGHHPHVLQGIEIYRGSPIFYSLGNFAFGSRSPSADRSIIARVTLGEGPPIVEVIPLNVLFREVRFQPAILTGRKAADVVDRLNRLSAPFSTVITSTAGSHLVAPAEANARLARRQLEHHHHHH,failed
6,MERKFMSLQPSISVSEMEPNGTFSNNNSRNCTIENFKREFFPIVYLIIFFWGVLGNGLSIYVFLQPYKKSTSVNVFMLNLAISDLLFISTLPFRADYYLRGSNWIFGDLACRIMSYSLYVNMYSSIYFLTVLSVVRFLAMVHPFRLLHVTSIRSAWILCGIIWILIMASSIMLLDSGSEQNGSVTSCLELNLYKIAKLQTMNYIALVVGCLLPFFTLSICYLLIIRVLLKVEVPESGLRVSHRKALTTIIITLIIFFLCFLPYHTLRTVHLTTWKVGLCKDRLHKALVITLALAAANACFNPLLYYFAGENFKDRLKSALRKGHPQKAKTKCVFPVSVWLRKETRV,failed
7,MERKGIFIKVFSYTIIVLLLLVGVTATLFAQQFVSYFRAMEAQQTVKSYQPLVELIQNSDRLDMQEVAGLFHYNNQSFEFYIEDKEGSVLYATPNADTSNSVRPDFLYVVHRDDNISIVAQSKAGVGLLYQGLTIRGIVMIAIMVVFSLLCAYIFARQMTTPIKALADSANKMANLKEVPPPLERKDELGALAHDMHSMYIRLKETIARLEDEIAREHELEETQRYFFAAASHELKTPIAAVSVLLEGMLENIGDYKDHSKYLRECIKMMDRQGKTISEILELVSLNDGRIVPIAEPLDIGRTVAELLPDFQTLAEANNQRFVTDIPAGQIVLSDPKLIQKALSNVILNAVQNTPQGGEVRIWSEPGAEKYRLSVLNMGVHIDDTALSKLFIPFYRIDQARSRKSGRSGLGLAIVQKTLDAMSLQYALENTSDGVLFWLDLPPTSTL,failed
8,MERKLSNGCVASKSEELAKQQLPPPPDQDQEQPALQPPKVNGLKENQAVKHNNNNNTNNNNNKNGLVNGNAKKDELKAAEDHDTQSKEDDDPKEKVVKPKLNGNLIKNPIDKTAETQDKIAQPAPEPPLPKRPKLETPTSNEVTKANGQLVQQQLESRESEEEPQHVDE,failed
9,MERLISHPPLMIVSDLDHTMVDHQDHENLSLLRFNSLWEYAYRRDSLLVFSTARSPVLYKELRKEKPLLTPDIIITSIGTEIAFGNSMVPDHAWVESLNSCKWNREIVLEETSKFPELTLQPKTEQRLHKVSFYIDEGKGEALTKELSQLLEKRGLDVKIIYSWGKNVDVIPRGAGKGEALEYLLKKLQAEGIFPVNTLACGDSEHDAELFSIPDVHGVMVSNSQEELLKWRSENALNNLKVIHSTERCADGIIQAIGHFNLGPDLSPRDVSEFLDRKMDNVNPGHEVVRFYLFYERLRRGEIKNYETYIASFKDSCAEKSLRDTIDELKKCYGDKRGKKFWVWVDQVLVTDTIPGKWIVKFDKWEQCEDESQCCKTTVEFTSKGGDLVWEKVKQIWSEESKVKDDNSSWIL,not failed
10,MERLTRWLLVMMAMLLAASGLVWFYNSNHLPVKQVSLKGNLVYSDKKTLGSLAKEYIHGNILRTDINGAQEAYRRYPWIASVMVRRRFPDTVEVVLTERKPVARWGDHALVDGEGNVFEARLDRPGMPVFRGAEGTSAEMLRRYDEFSTVLAKQGLGIKEMTYTARSAWIVVLDNGITVRLGRENEMKRLRLFTEAWQHLLRKNKNRLSYVDMRYKDGFSVRYASDGLPEKESEE,failed
11,MERNANYALVGAISLALFMGLVIFAVWLAKLSFNRDYDVYDILFVGPVRGLSQGGEVHFNGIKVGEVTRIELDKTDTNRVIARVRVTSDVPIKVDSYATLEPQGITGVNYVQITAGAPNKELLKDTVKTGKVPVIRTQRSALSDLLEGGGTVLTRTIEALDRVNRVLSDRNIKSFGATLTNVQAVTQEMRDRKEILADAQKALQSIDQTAQSITELSNSANTLVDGDAKRTLKELGDAAAELRATAKDARGMVTKLEGPASDFATTGLPQLSSAIVTLQSAAESLDRLVGEVEQNPRGVVGKAPAKEVEVKPLEHHHHHH,not failed
12,MERRTILVTGASGFVGGALCRQLATLGSFAIRAASRDLGGASVAGIQAVTVADLSATTDWARALSGVDLVVHAAARVHVMKETASDSLAEFRRVNVDGTLNLARQAAAAGVRRFIFISSIKVNGESSQPGQPLRADDSPAPQDAYGVSKHEAEQGLRQLAAATGMEVVVIRPVLVYGPGVKANFHSMMRWLQRGVPLPFGAVCNRRSLVSLANLVDLVVTCIDHPRAANQTFLASDGDDVSLTQLLRALGLALGRPARLLPVPAGLLRGAVLLIGRRDLAQRLFGTLQVDIEKNRQLLGWYPPCTLEQGLNMTARSFLGARRP,failed
13,MERSAIQIPAGRIDDAVAKVDGLVGELMQNTGIPGMAVAIVHGGKTLYAKGFGVRDVGKGGGPDNKVDADTVFQLASVSKSVGATVVAHAVTDNVVTWDTPVVSKLPWFALRDPYVTGQVTIADLYSHRSGLPDHAGDLLEDLGYDRRQVLQRLKYLPLAPFRISYAYTNFGVTAAAEAVAAAAGQSWEDLSDEVLYRPLGMGSTSSRFTDFLARPNHAVNHVKVADRWEARYQRDPDAQSPAGGVSSSLNDMTHWLAMVLADGVYNGRRITSPEALLLVYTPQVISRHPVSPRARASFYGYGFNVGVTSSGRTEYSHSGAFGLGAAANFVVLPSEDLAIIALTNAGPIGVPETLTAEFMDLVQYGQVREDWAALYKKAFAPLNELAGSLVGKQSPANPAPSRPLNDYVGVYANDYWGPATVTYHDGQLRLSLGPKNQTFDLTHWDGDTFTFTLSTENALPGSISKATFAGDTLNLEYYDADKLGTFTRLEHHHHHH,failed
14,MERVSERSLSENLRRSDREDGKIIEWEEFDHELTRLWSLSSAMKLATERKQILQPKLESLIQVSTESLRRTNELEEMRQRLEARKLLVDKTSVACKVTEQDVKKKEENLSTEVRSLLVGGTTLSIAKSKLQESNCQLEGESGYAHLKIVTNKLRKRQQFMVSQVSFIYPLKIEAGPSQDQELESFPGGSRLGTKPLSQGSVRILGLPFSMAPFTKMSFFTDKKEVQKSATALGYVAHAVSLIAPYLRVPIRYPLCLGGSKTYIRDYAPYIEPSPSDMSPITTLSQNINFVEFPLFLDGQDTTRAAYAVFLLNKNIEQLLNFVGENSLGPRQVLANLKELIRIIQSPDYIDYL,failed
15,MESADSGRSDPVKGDDPGPSFVSSPPATPSRYESQKRRDWNTFLQYLKNHKPPLALSRCSGAHVIEFLKYLDQFGKTKVHVAACPYFGHQQPPSPCSCPLKQAWGSLDALIGRLRAAYEENGGRPDSNPFAARAVRIYLREVRESQAKARGIPYEKKKRKRPPTVTTVRVDVASSRQSDGDPCNVGAPSVAEAVPP,failed
16,MESDIEILSEADASMRKLRIFGIDDREDENGRRRIKDVEVYVPIVCGSIAFYLGKKATEYRTHKWTVYVRGATNEDLGVVIKRVIFHLHPSFNNPTRVVDAPPFALSECGWGEFKIDITVFFHTDVCEKKLELSHVLKLNPENAYGPIPKSIKIPVVAESYNEVVFPDPFESFVARVHNHPAIQISNIPDGLNLPPPGAFLF,not failed
17,MESFHPLSLLKPSIRGWCIRGRVVRTFLVSLVPSSKVMGLILAEEHGMTIEATVGYKMSDHYKDFINEGEWVTITNFGVVENSGSVRATTHSFKIGFFVDIVVRLTSPLPAIPHYRLASFSSIIDDEIDKSVLVDLVGAIYDVGELINTRPKQNNVDDLTLIFKISDNENRVLECLATKKEALDFDHNYRRYGGGVIVAVLGWWKIDRYFDGPKNVRVCTAGTISTVFPDPDIPESNEIHEI,failed
18,MESLSIIFRWFVGLRSVGSSLGRKPDQTEETTLTTKLDIAPANDRELVVARIIDAPRENVYRCWTDTRLLTQWFSPKPWTTPRAEMDMRTGGSSLVIMADPDGNEFPNPGVFLEVIPGKKIIFTDAYTQAWEPSEKPFMTGVLTFEDEGEGRTRYIARVRHWSVADRERHEAMGFHVGWGQCTDQLEDLARTL,failed
19,MESLTLQPIELISGEVNLPGSKSVSNRALLLAALASGTTRLTNLLDSDDIRHMLNALTKLGVNYRLSADKTTCEVEGLGQAFHTTQPLELFLGNAGTAMRPLAAALCLGQGDYVLTGEPRMKERPIGHLVDALRQAGAQIEYLEQENFPPLRIQGTGLQAGTVTIDGSISSQFLTAFLMSAPLAQGKVTIKIVGELVSKPYIDITLHIMEQFGVQVINHDYQEFVIPAGQSYVSPGQFLVEGDASSASYFLAAAAIKGGEVKVTGIGKNSIQGDIQFADALEKMGAQIEWGDDYVIARRGELNAVDLDFNHIPDAAMTIATTALFAKGTTAIRNVYNWRVKETDRLAAMATELRKVGATVEEGEDFIVITPPTKLIHAAIDTYDDHRMAMCFSLVALSDTPVTINDPKCTSKTFPDYFDKFAQLSR,not failed
20,MESMQDLWTLKYRAETLEGMLGNEHAVRTLSELLQSGTLPHLIFYGPENSGKTTASLALARELYGETWKNNFVYFNASDFFDQGKRYLVRDKRFVRILGTDDPKKIYKSVIDIFKEVVNEYAGMASIDADYKIIYIDNAESLSSDAQHALRRIMEKYSSTCRFILSTTRPSKLISPLRSRGLQVFFAYVPDSLLKTHLERIALAEKLKLSDGALDAVLYLAKGNVARAVQTLQLAALRSEGAEITEEIVYEATMKGRDETIDELLEAALAGDFARGRQLIDGMIIEKGLSGTDIFEGLSEALIDSGETDADIARLIVSISEADARLTDATSERIQLEKLISTFS,failed
